Test results published in paper PMC2756588.

Assays:
Test in all cases: SPOT array
Abp1, P15891 = target: T1, Abp1, P15891; details: median of control spots 935
T1 sequence (P15891 535-592, looked up): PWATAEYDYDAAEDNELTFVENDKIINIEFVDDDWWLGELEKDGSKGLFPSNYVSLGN

Bbc1, P47068 = target: T2, Bbc1, P47068; details: median of control spots 796
T2 sequence (P47068 1-78, looked up): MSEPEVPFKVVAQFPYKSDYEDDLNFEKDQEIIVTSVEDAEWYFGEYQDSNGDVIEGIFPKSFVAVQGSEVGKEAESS

Bem1-1, P29366 = details: median of control spots 4282
Bem1-2, P29366 = details: median of control spots 4347
Boi1, P38041 = target: T3, Boi1, P38041; details: median of control spots 1162
T3 sequence (P38041 1-86, looked up): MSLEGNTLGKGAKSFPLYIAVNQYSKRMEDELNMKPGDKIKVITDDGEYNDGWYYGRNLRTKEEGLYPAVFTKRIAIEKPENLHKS

Boi2, P39969 = target: T4, Boi2, P39969; details: median of control spots 1161
T4 sequence (P39969 32-116, looked up): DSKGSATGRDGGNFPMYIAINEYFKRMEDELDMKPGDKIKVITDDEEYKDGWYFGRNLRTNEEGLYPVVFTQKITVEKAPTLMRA

Bud14, P27637 = target: T5, Bud14, P27637; details: median of control spots 956
T5 sequence (P27637 247-328, looked up): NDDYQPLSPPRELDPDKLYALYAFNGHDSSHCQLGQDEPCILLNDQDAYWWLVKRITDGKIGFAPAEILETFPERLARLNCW

Bzz1-1, P38822 = target: T6, Bzz1-1, P38822; details: median of control spots 4446
T6 sequence (P38822 478-572, looked up): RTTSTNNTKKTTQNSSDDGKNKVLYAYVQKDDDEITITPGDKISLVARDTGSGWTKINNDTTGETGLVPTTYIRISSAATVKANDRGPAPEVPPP

Bzz1-2, P38822 = target: T7, Bzz1-2, P38822; details: median of control spots 4538
T7 sequence (P38822 568-633, looked up): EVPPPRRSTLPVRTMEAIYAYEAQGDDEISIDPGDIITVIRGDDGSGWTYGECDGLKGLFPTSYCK

Cdc25, P04821 = target: T8, Cdc25, P04821; details: median of control spots 969
T8 sequence (P04821 50-136, looked up): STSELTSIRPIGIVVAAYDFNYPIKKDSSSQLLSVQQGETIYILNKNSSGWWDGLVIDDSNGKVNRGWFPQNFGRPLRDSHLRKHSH

Cyk3, Q07533 = target: T9, Cyk3, Q07533; details: median of control spots 1451
T9 sequence (Q07533 1-83, looked up): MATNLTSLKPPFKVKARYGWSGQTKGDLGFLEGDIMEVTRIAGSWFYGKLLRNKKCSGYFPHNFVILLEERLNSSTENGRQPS

Fus1, P11710 = target: T10, Fus1, P11710; details: median of control spots 1200
T10 sequence (P11710 432-512, looked up): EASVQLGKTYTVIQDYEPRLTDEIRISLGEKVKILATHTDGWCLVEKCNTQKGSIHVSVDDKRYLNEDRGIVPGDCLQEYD

GST = details: median of control spots 978
Hof1, Q05080 = target: T11, Hof1, Q05080; details: median of control spots 4086
T11 sequence (Q05080 590-669, looked up): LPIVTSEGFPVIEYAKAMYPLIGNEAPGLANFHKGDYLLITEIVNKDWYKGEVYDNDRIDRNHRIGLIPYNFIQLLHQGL

Hse1, P38753 = target: T12, Hse1, P38753; details: median of control spots 1727
T12 sequence (P38753 208-285, looked up): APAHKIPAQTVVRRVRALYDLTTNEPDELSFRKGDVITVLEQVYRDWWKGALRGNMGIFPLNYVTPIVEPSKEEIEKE

Lsb1, P53281 = target: T13, Lsb1, P53281; details: median of control spots 388
T13 sequence (P53281 45-122, looked up): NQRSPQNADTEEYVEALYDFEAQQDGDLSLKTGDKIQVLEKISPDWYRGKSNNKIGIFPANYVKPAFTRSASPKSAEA

Lsb3, P43603 = target: T14, Lsb3, P43603; details: median of control spots 406
T14 sequence (P43603 385-451, looked up): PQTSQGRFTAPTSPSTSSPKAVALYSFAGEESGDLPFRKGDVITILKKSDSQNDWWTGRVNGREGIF

Lsb4, P32793 = target: T15, Lsb4, P32793; details: median of control spots 397
T15 sequence (P32793 402-468, looked up): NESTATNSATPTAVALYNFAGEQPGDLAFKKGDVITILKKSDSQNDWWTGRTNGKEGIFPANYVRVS

Myo3, P36006 = details: median of control spots 468
Myo5, Q04439 = target: T16, Myo5, Q04439; details: median of control spots 471
T16 sequence (Q04439 1072-1160, looked up): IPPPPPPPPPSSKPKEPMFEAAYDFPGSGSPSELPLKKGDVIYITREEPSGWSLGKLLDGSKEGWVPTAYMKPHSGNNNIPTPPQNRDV

Nbp2, Q12163 = target: T17, Nbp2, Q12163; details: median of control spots 357
T17 sequence (Q12163 103-180, looked up): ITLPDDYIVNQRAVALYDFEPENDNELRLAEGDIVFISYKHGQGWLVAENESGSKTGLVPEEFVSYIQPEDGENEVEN

Pex13, P80667 = target: T18, Pex13, P80667; details: median of control spots 1341
T18 sequence (P80667 295-386, looked up): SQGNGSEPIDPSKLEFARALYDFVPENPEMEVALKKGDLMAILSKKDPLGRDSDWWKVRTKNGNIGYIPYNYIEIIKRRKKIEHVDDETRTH

Pin3, Q06449 = target: T19, Pin3, Q06449; details: median of control spots 2171
T19 sequence (Q06449 53-122, looked up): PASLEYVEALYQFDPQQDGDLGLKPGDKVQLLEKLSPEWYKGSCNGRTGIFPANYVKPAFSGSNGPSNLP

Rvs167, P39743 = details: median of control spots 2707
Sho1, P40073 = details: median of control spots 1148
Sla1-2, P32790 = target: T20, Sla1-2, P32790; details: median of control spots 712
T20 sequence (P32790 60-140, looked up): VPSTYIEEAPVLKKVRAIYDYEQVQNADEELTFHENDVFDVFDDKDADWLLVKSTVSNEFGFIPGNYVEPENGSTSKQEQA

Sla1-3, P32790 = target: T21, Sla1-3, P32790; details: median of control spots 5475
T21 sequence (P32790 344-424, looked up): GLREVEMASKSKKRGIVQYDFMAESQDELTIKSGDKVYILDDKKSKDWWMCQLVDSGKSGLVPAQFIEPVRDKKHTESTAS

Sequence of Bem1-1, P29366 (P29366 55-141): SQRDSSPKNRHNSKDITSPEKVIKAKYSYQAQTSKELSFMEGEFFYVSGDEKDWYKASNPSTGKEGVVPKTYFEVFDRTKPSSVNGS
Sequence of Bem1-2, P29366 (P29366 139-227): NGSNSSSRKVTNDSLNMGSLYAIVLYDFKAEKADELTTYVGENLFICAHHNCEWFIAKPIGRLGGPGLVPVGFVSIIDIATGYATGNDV
Sequence of Sho1, P40073 (P40073 287-367): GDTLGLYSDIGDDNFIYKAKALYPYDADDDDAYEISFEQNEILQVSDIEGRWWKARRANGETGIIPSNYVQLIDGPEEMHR
Sequence of Rvs167, P39743 (P39743 419-482): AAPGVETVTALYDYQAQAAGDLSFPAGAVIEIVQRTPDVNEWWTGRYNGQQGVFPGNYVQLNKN

## YSRKKLPVVLSKMTL
Abp1, P15891
  SPOT intensity: 64
Bbc1, P47068
  SPOT intensity: 18
Bem1-1, P29366
  SPOT intensity: 1
Bem1-2, P29366
  SPOT intensity: 0
Boi1, P38041
  SPOT intensity: 0
Boi2, P39969
  SPOT intensity: 1
Bud14, P27637
  SPOT intensity: 3
Bzz1-1, P38822
  SPOT intensity: 1
Bzz1-2, P38822
  SPOT intensity: 0
Cdc25, P04821
  SPOT intensity: 0
Cyk3, Q07533
  SPOT intensity: 1
Fus1, P11710
  SPOT intensity: 2
GST
  SPOT intensity: 2
Hof1, Q05080
  SPOT intensity: 2
Hse1, P38753
  SPOT intensity: 1
Lsb1, P53281
  SPOT intensity: 888
Lsb3, P43603
  SPOT intensity: 1
Lsb4, P32793
  SPOT intensity: 0
Myo3, P36006
  SPOT intensity: 1
Myo5, Q04439
  SPOT intensity: 4
Nbp2, Q12163
  SPOT intensity: 0
Pex13, P80667
  SPOT intensity: 8
Pin3, Q06449
  SPOT intensity: 20
Rvs167, P39743
  SPOT intensity: 2
Sho1, P40073
  SPOT intensity: 47
Sla1-2, P32790
  SPOT intensity: 4
Sla1-3, P32790
  SPOT intensity: 12

## KWVRRPKLMTPLTFS
Abp1, P15891
  SPOT intensity: 67
Bbc1, P47068
  SPOT intensity: 38
Bem1-1, P29366
  SPOT intensity: 0
Bem1-2, P29366
  SPOT intensity: 5
Boi1, P38041
  SPOT intensity: 1
Boi2, P39969
  SPOT intensity: 0
Bud14, P27637
  SPOT intensity: 11
Bzz1-1, P38822
  SPOT intensity: 1
Bzz1-2, P38822
  SPOT intensity: 0
Cdc25, P04821
  SPOT intensity: 0
Cyk3, Q07533
  SPOT intensity: 1
Fus1, P11710
  SPOT intensity: 54
GST
  SPOT intensity: 1
Hof1, Q05080
  SPOT intensity: 8
Hse1, P38753
  SPOT intensity: 16
Lsb1, P53281
  SPOT intensity: 355
Lsb3, P43603
  SPOT intensity: 5
Lsb4, P32793
  SPOT intensity: 2
Myo3, P36006
  SPOT intensity: 6
Myo5, Q04439
  SPOT intensity: 6
Nbp2, Q12163
  SPOT intensity: 3
Pex13, P80667
  SPOT intensity: 6
Pin3, Q06449
  SPOT intensity: 53
Rvs167, P39743
  SPOT intensity: 0
Sho1, P40073
  SPOT intensity: 19
Sla1-2, P32790
  SPOT intensity: 0
Sla1-3, P32790
  SPOT intensity: 44

## YYNRQELALPKRMSS
Abp1, P15891
  SPOT intensity: 14
Bbc1, P47068
  SPOT intensity: 8
Bem1-1, P29366
  SPOT intensity: 0
Bem1-2, P29366
  SPOT intensity: 0
Boi1, P38041
  SPOT intensity: 1
Boi2, P39969
  SPOT intensity: 1
Bud14, P27637
  SPOT intensity: 3
Bzz1-1, P38822
  SPOT intensity: 0
Bzz1-2, P38822
  SPOT intensity: 4
Cdc25, P04821
  SPOT intensity: 0
Cyk3, Q07533
  SPOT intensity: 3
Fus1, P11710
  SPOT intensity: 6
GST
  SPOT intensity: 3
Hof1, Q05080
  SPOT intensity: 1
Hse1, P38753
  SPOT intensity: 2
Lsb1, P53281
  SPOT intensity: 819
Lsb3, P43603
  SPOT intensity: 24
Lsb4, P32793
  SPOT intensity: 45
Myo3, P36006
  SPOT intensity: 11
Myo5, Q04439
  SPOT intensity: 5
Nbp2, Q12163
  SPOT intensity: 1
Pex13, P80667
  SPOT intensity: 16
Pin3, Q06449
  SPOT intensity: 327
Rvs167, P39743
  SPOT intensity: 21
Sho1, P40073
  SPOT intensity: 9
Sla1-2, P32790
  SPOT intensity: 2
Sla1-3, P32790
  SPOT intensity: 7

## NRPAIRIPSLKKPAL
Abp1, P15891
  SPOT intensity: 74
Bbc1, P47068
  SPOT intensity: 40
Bem1-1, P29366
  SPOT intensity: 1
Bem1-2, P29366
  SPOT intensity: 12
Boi1, P38041
  SPOT intensity: 1
Boi2, P39969
  SPOT intensity: 0
Bud14, P27637
  SPOT intensity: 13
Bzz1-1, P38822
  SPOT intensity: 3
Bzz1-2, P38822
  SPOT intensity: 0
Cdc25, P04821
  SPOT intensity: 5
Cyk3, Q07533
  SPOT intensity: 0
Fus1, P11710
  SPOT intensity: 1
GST
  SPOT intensity: 1
Hof1, Q05080
  SPOT intensity: 13
Hse1, P38753
  SPOT intensity: 20
Lsb1, P53281
  SPOT intensity: 467
Lsb3, P43603
  SPOT intensity: 0
Lsb4, P32793
  SPOT intensity: 6
Myo3, P36006
  SPOT intensity: 3
Myo5, Q04439
  SPOT intensity: 2
Nbp2, Q12163
  SPOT intensity: 2
Pex13, P80667
  SPOT intensity: 5
Pin3, Q06449
  SPOT intensity: 9
Rvs167, P39743
  SPOT intensity: 0
Sho1, P40073
  SPOT intensity: 39
Sla1-2, P32790
  SPOT intensity: 0
Sla1-3, P32790
  SPOT intensity: 14
